This test deals with T1, Interferon regulatory factor 3 (human (endogenous in A375)), Q14653.
T1 chain: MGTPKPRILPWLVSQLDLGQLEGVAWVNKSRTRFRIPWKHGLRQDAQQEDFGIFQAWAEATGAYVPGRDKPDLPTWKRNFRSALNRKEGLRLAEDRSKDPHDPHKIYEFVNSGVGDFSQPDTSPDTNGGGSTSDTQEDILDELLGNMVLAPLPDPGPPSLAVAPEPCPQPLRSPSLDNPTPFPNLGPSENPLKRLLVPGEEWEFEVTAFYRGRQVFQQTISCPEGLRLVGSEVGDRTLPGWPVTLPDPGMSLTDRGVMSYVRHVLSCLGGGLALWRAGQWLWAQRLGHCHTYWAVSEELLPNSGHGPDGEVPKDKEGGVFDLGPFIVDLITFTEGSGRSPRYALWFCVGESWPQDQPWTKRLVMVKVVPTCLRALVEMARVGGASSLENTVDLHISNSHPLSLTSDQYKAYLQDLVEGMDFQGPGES
Put plainly: cross-linking; covalent cross-link formed in cells (TG2-dependent), seen by Western blot of SDS-polyacrylamide gels under denaturing conditions; A375 cells treated with doxorubicin 5 μM for 6, 16 and 24 h; HeLa cells too. The note with it: remark: other sources report otherwise.

B1: Interferon regulatory factor 3, Q14653 1-427 (natural protein)
chain: T1 chain
With B1, the stoichiometry N was determined as 2.

The term stoichiometry N denotes a count of units in the complex or per binding partner.

Source of the values: publication PMC9792452.
